Assays:
Assay type in all cases: biochemical, Metallosphaera sedula
[1] = substrate: C[C@H](O)CC(=O)SCCNC(=O)CCNC(=O)[C@H](O)C(C)(C)COP(=O)(O)OP(=O)(O)OC[C@H]1O[C@@H](n2cnc3c(N)ncnc32)[C@H](O)[C@@H]1OP(=O)(O)O; assay: (S)-3-hydroxybutyryl-CoA dehydrogenase assay; conditions: 0.5 mM NAD, 65 °C, apparent Km
Description: (§1) (S)-3-hydroxybutyryl-CoA dehydrogenase assay on (S)-3-hydroxybutyryl-CoA dehydrogenase Msed_1423

[2] = substrate: NC(=O)c1ccc[n+]([C@@H]2O[C@H](COP(=O)(O)OP(=O)(O)OC[C@H]3O[C@@H](n4cnc5c(N)ncnc54)[C@H](O)[C@@H]3O)[C@@H](O)[C@H]2O)c1; assay: (S)-3-hydroxybutyryl-CoA dehydrogenase assay; conditions: with (S)-3-hydroxybutyryl-CoA, 65 °C, apparent Km, varied: cofactor
Description: as §1

[3] = substrate: NC(=O)c1ccc[n+]([C@@H]2O[C@H](COP(=O)(O)OP(=O)(O)OC[C@H]3O[C@@H](n4cnc5c(N)ncnc54)[C@H](OP(=O)(O)O)[C@@H]3O)[C@@H](O)[C@H]2O)c1; assay: (S)-3-hydroxybutyryl-CoA dehydrogenase assay; conditions: with (S)-3-hydroxybutyryl-CoA, 65 °C, apparent Km, varied: cofactor
Description: as §1

[4] = substrate: C=C(C)C(=O)SCCNC(=O)CCNC(=O)[C@H](O)C(C)(C)COP(=O)(O)OP(=O)(O)OC[C@H]1O[C@@H](n2cnc3c(N)ncnc32)[C@H](O)[C@@H]1OP(=O)(O)O; assay: UHPLC, 3-hydroxy-2-methylpropionyl-CoA formation; conditions: hydratase reaction, 100 mM Tris-HCl pH 7.8, 65 °C, apparent Km
Description: UHPLC, 3-hydroxy-2-methylpropionyl-CoA formation on crotonyl-CoA hydratase Msed_0336

[5] = substrate: C[C@H](O)CC(=O)SCCNC(=O)CCNC(=O)[C@H](O)C(C)(C)COP(=O)(O)OP(=O)(O)OC[C@H]1O[C@@H](n2cnc3c(N)ncnc32)[C@H](O)[C@@H]1OP(=O)(O)O; assay: Ccr-coupled dehydratase assay, UHPLC; conditions: dehydratase reaction, 100 mM Tris-HCl pH 7.8, 42 °C, 1 mM NADPH and NaHCO3 for coupling enzyme, apparent Km
Description: Ccr-coupled dehydratase assay, UHPLC on crotonyl-CoA hydratase Msed_0336

[6] = substrate: C=CC(=O)SCCNC(=O)CCNC(=O)[C@H](O)C(C)(C)COP(=O)(O)OP(=O)(O)OC[C@H]1O[C@@H](n2cnc3c(N)ncnc32)[C@H](O)[C@@H]1OP(=O)(O)O; assay: UHPLC, 3-hydroxypropionyl-CoA formation; conditions: hydratase reaction, 100 mM Tris-HCl pH 7.8, 65 °C, apparent Km
Description: UHPLC, 3-hydroxypropionyl-CoA formation on crotonyl-CoA hydratase Msed_0336

[7] = substrate: C/C=C/C(=O)SCCNC(=O)CCNC(=O)[C@H](O)C(C)(C)COP(=O)(O)OP(=O)(O)OC[C@H]1O[C@@H](n2cnc3c(N)ncnc32)[C@H](O)[C@@H]1OP(=O)(O)O; assay: UHPLC, 3-hydroxybutyryl-CoA formation; conditions: hydratase reaction, 100 mM Tris-HCl pH 7.8, 65 °C, apparent Km
Description: UHPLC, 3-hydroxybutyryl-CoA formation on crotonyl-CoA hydratase Msed_0336

[8] = substrate: CCCCC/C=C/C(=O)SCCNC(=O)CCNC(=O)[C@H](O)C(C)(C)COP(=O)(O)OP(=O)(O)OC[C@H]1O[C@@H](n2cnc3c(N)ncnc32)[C@H](O)[C@@H]1OP(=O)(O)O; assay: UHPLC, 3-hydroxyoctanoyl-CoA formation; conditions: hydratase reaction, 100 mM Tris-HCl pH 7.8, 65 °C, apparent Km
Description: UHPLC, 3-hydroxyoctanoyl-CoA formation on crotonyl-CoA hydratase Msed_0336

[9] = substrate: CCCCC/C=C/C(=O)SCCNC(=O)CCNC(=O)[C@H](O)C(C)(C)COP(=O)(O)OP(=O)(O)OC[C@H]1O[C@@H](n2cnc3c(N)ncnc32)[C@H](O)[C@@H]1OP(=O)(O)O; assay: UHPLC, 3-hydroxyoctanoyl-CoA formation; conditions: hydratase reaction, 65 °C, apparent Km, buffer in general 100 mM Tris-HCl pH 7.8
Description: UHPLC, 3-hydroxyoctanoyl-CoA formation on crotonyl-CoA hydratase/(S)-3-hydroxybutyryl-CoA dehydrogenase Msed_0399

[10] = substrate: C/C=C/C(=O)SCCNC(=O)CCNC(=O)[C@H](O)C(C)(C)COP(=O)(O)OP(=O)(O)OC[C@H]1O[C@@H](n2cnc3c(N)ncnc32)[C@H](O)[C@@H]1OP(=O)(O)O; assay: UHPLC, 3-hydroxybutyryl-CoA formation; conditions: hydratase reaction, 100 mM Tris-HCl pH 9, 65 °C, apparent Km
Description: UHPLC, 3-hydroxybutyryl-CoA formation on crotonyl-CoA hydratase/(S)-3-hydroxybutyryl-CoA dehydrogenase Msed_0399

[11] = substrate: CC(C)(COP(=O)(O)OP(=O)(O)OC[C@H]1O[C@@H](n2cnc3c(N)ncnc32)[C@H](O)[C@@H]1OP(=O)(O)O)[C@@H](O)C(=O)NCCC(=O)NCCSC(=O)CCO; assay: Ccr-coupled assay, acryloyl-CoA formation, UHPLC; conditions: dehydratase reaction, 100 mM MOPS/KOH pH 7.0, 42 °C, 1 mM NADPH and NaHCO3 for coupling enzyme, apparent Km
Description: Ccr-coupled assay, acryloyl-CoA formation, UHPLC on crotonyl-CoA hydratase/(S)-3-hydroxybutyryl-CoA dehydrogenase Msed_0399

[12] = substrate: C[C@H](O)CC(=O)SCCNC(=O)CCNC(=O)[C@H](O)C(C)(C)COP(=O)(O)OP(=O)(O)OC[C@H]1O[C@@H](n2cnc3c(N)ncnc32)[C@H](O)[C@@H]1OP(=O)(O)O; assay: (S)-3-hydroxybutyryl-CoA dehydrogenase assay with NAD; conditions: dehydrogenase reaction with NAD, 65 °C, apparent Km
Description: (S)-3-hydroxybutyryl-CoA dehydrogenase assay with NAD on crotonyl-CoA hydratase/(S)-3-hydroxybutyryl-CoA dehydrogenase Msed_0399

[13] = substrate: C[C@H](O)CC(=O)SCCNC(=O)CCNC(=O)[C@H](O)C(C)(C)COP(=O)(O)OP(=O)(O)OC[C@H]1O[C@@H](n2cnc3c(N)ncnc32)[C@H](O)[C@@H]1OP(=O)(O)O; assay: (S)-3-hydroxybutyryl-CoA dehydrogenase assay; conditions: 0.5 mM NAD, 65 °C, apparent Km; remark: listed apart in the source
Description: (§2) (S)-3-hydroxybutyryl-CoA dehydrogenase assay on (S)-3-hydroxybutyryl-CoA dehydrogenase Msed_0389

[14] = substrate: NC(=O)c1ccc[n+]([C@@H]2O[C@H](COP(=O)(O)OP(=O)(O)OC[C@H]3O[C@@H](n4cnc5c(N)ncnc54)[C@H](O)[C@@H]3O)[C@@H](O)[C@H]2O)c1; assay: (S)-3-hydroxybutyryl-CoA dehydrogenase assay; conditions: with (S)-3-hydroxybutyryl-CoA, 65 °C, apparent Km, varied: cofactor; remark: listed apart in the source
Description: as §2

[15] = substrate: NC(=O)c1ccc[n+]([C@@H]2O[C@H](COP(=O)(O)OP(=O)(O)OC[C@H]3O[C@@H](n4cnc5c(N)ncnc54)[C@H](OP(=O)(O)O)[C@@H]3O)[C@@H](O)[C@H]2O)c1; assay: (S)-3-hydroxybutyryl-CoA dehydrogenase assay; conditions: with (S)-3-hydroxybutyryl-CoA, 65 °C, apparent Km, varied: cofactor; remark: listed apart in the source
Description: as §2

B1: (S)-3-hydroxybutyryl-CoA dehydrogenase Msed_1423 (Metallosphaera sedula DSM 5348) (protein)
chain: MRIAVVGSGTMGHGIAEVAAMAGMEVKLIDISWDILNRAKERMYDSLKRLHERGTIRETPDTVMSRIEISVSYDVAKDVDFAIEAVPEILELKRKVFQELDRVVPKESILATNTSSIPISDIGEITSRKEKVIGMHFFNPPPLMKLVEVIPSKYTSEDVTRYTVELAKKMGKTPVRLRVEVPGFVSNRIFLRLLQEACREVESGEATIEEVDSSARNKLKLPMGIFELADYVGLDVAVDLWKVIVERGASDVKCSSYKERVDRKELGVKTGKGFYTYPAPGKYSKVSLPPESKVPPERIISLAVNEGAWLIENNIVNAEEIDTVMRLGFNFPKGLLEMADELGLDKILNALREIHSRGYEAYSPNPLLVKMVSQGQTGKSSGRGFYTYGKT
notes: full-length, N-terminal His10-tag (pET16b), recombinant in E. coli Rosetta 2 (DE3)
Protein B1 has a Km [1] of 5 ± 2 µM, a Km [2] of 30 ± 3 µM and a Km [3] of 5100 ± 500 µM.

B2: crotonyl-CoA hydratase Msed_0336 (Metallosphaera sedula DSM 5348) (protein)
chain: MKVLYEERDGISWITFNRPEKLNALDAESWKLLGDHVRRGDSSDSRAIVITGNGRAFSSGDDIGSMTSLNDQREAEDFFNALLYAVDGLIYTNKPVIGAVNGLAYGGGCEILLFMDVVISTRSARFSIPEGRLGLIPPMALSVGYNSIGRSVAWLAITGEEIDAMRAKEIGLVDIVGDDLNLELEKVMARISSMDQGSIKVIKAWLRKSREPIREAIRELSFMSLSTQAKERMKRFLSR
notes: as for B1
For B2, the Km [4] was 290 ± 50 µM, the Km [5] was 70 ± 20 µM and the Km [6] was 70 ± 5 µM. It also gave a Km [7] of 80 ± 10 µM and a Km [8] of 90 ± 10 µM.

B3: crotonyl-CoA hydratase/(S)-3-hydroxybutyryl-CoA dehydrogenase Msed_0399 (Metallosphaera sedula DSM 5348) (protein)
chain: MKVTVIGSGVMGHGIAELAAIAGNEVWMNDISTEILQQAMERIKWSLSKLRESGSLKEGVEQVLARIHPETDQAQALKGSDFVIEAVKEDLELKRTIFRNAEAHASPSAVLATNTSSLPISEIASVLKSPQRVVGMHFFNPPVLMPLVEIVRGKDTSDEVVKTTAEMAKSMNKETIVVKDVPGFFVNRVLLRIMEAGCYLVEKGIASIQEVDSSAIEELGFPMGVFLLADYTGLDIGYSVWKAVTARGFKAFPCSSTEKLVSQGKLGVKSGSGYYQYPSPGKFVRPTLPSTSKKLGRYLISPAVNEVSYLLREGIVGKDDAEKGCVLGLGLPKGILSYADEIGIDVVVNTLEEMRQTSGMDHYSPDPLLLSMVKEGKLGRKSGQGFHTYAHEEAKYSTIVVRVEPPLAWIVLNRPTRYNAINGDMIREINQALDSLEEREDVRVIAITGQGRVFSAGADVTEFGSLTPVKAMIASRKFHEVFMKIQFLTKPVIAVINGLALGGGMELALSADFRVASKTAEMGQPEINLGLIPGGGGTQRLSRLSGRKGLELVLTGRRVKAEEAYRLGIVEFLAEPEELESEVRKLANAIAEKSPLAVASAKLAYKLGEETHIWTGTSLEASLFGLLFSTKDFEEGVRAFLEKRKPNFRGE
notes: full-length, untagged, recombinant in E. coli Rosetta 2 (DE3); N-terminal dehydrogenase domain (~40 kDa), C-terminal enoyl-CoA hydratase domain (~20 kDa)
B3 gave a Km [9] of 80 ± 10 µM, a Km [10] of 970 ± 70 µM and a Km [11] of 60 ± 20 µM. For the same protein, the Km [12] was 120 ± 10 µM.

B4: (S)-3-hydroxybutyryl-CoA dehydrogenase Msed_0389 (Metallosphaera sedula DSM 5348) (protein)
chain: MKVFVIGSGVMGSGIGQVFAMAGHEVTLYDVKEEALKKAMEGIRWSLQKLQEKGSVKDVESVLSRIFTSRDLSEARDHLVIEAVFEDIKVKSDVLGRVSPLTDEIIASNTSSLPITELSRAVRNPERFLGMHFFNPPVLMKLVEVIRGDNTSEERFREALDIVKSLGKYPLPVRKDVFGFVVNRILFRLFTSACALLTQYTPHEIDYVAIKELGMPMGLIMLLDYTGLDVNYDISKEAERRGFPFKCDVLEGMVKSGKLGRKSGQGFYDWSKGKPEVKATSGPDPRELLRGAVEEAKWLISQGVVTREELETGLKLGLGMSRGILELGEILGVH
notes: as for B1
B4 gave a Km [13] of 2.6 ± 1 µM, a Km [14] of 12 ± 2 µM and a Km [15] of 1500 ± 300 µM.

Source: article PMC7078158, “Enzymes Catalyzing Crotonyl-CoA Conversion to Acetoacetyl-CoA During the Autotrophic CO2 Fixation in Metallosphaera sedula” (Frontiers in Microbiology, 2020)
